Experimental data: the supplement of paper PMC7877785
± gives the uncertainty stated by the source.

Experiment: self-splicing fitness, log relative to wild type (ln ratio); higher = more splicing; Tetrahymena group I intron in knt gene, E. coli kanamycin selection, DiMSum; sequences stand for … in CUCUCU…GGAGGGAAAAGUUAUCAGGCAUGCACCUGGUAGCUAGUCUUUAAACCAAUAGAUUGCAUCGGUUUAAAAGGCAAGACCGUCAAAUUGCGGGAAAGGGGUCAACAGCCGUUCAGUACCAAGUCUCAGGGGAAACUUUGAGAUGGCCUUGCAAAGGGUAUGGUAAUAAGCUGACGGACAUGGUCCUAACCACGCAGCCAAGUCCUAAGUCAACAGAUCUUCUGUUGAUAUGGAUGCAGUUCACAGACUAAAUGUCGGUCGGGGAAGAUGUAUUCUUCUCAUAAGAUAUAGUCGGACCUCUCCUUAAUGGGAGCUAGCGGAUGAAGUGAUGCAACACUGGAGCCGCUGGGAACUAAUUUGUAUGCGAAAGUAUAUUGAUUAGUUUUGGAGUACUCGUGGUCG
Procedure, shortened: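 Colonies from six replicate transformations of E. coli BL21(DE3) were pooled and amplicon-sequenced on an Illumina HiSeq 2500. The library placed an intron with all eight P1ex-region nucleotides randomised inside the knt kanamycin-resistance gene on pET-22b(+), and cells grew overnight at 37°C or 30°C on LB agar with or without 25 μg/mL kanamycin (plus 100 μg/mL carbenicillin, 50 μM IPTG, 0.2% rhamnose). Fitness is the DiMSum error-weighted combination of wild-type-normalised replicate fold changes, kanamycin versus none.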

Sequence | self-splicing fitness (ln) (30 °C) | self-splicing fitness (ln) (37 °C)
GCAUAGCAAUAUUACGUUGC | -3.65 ± 0.21 | -1.72 ± 0.21
GCCAAGCAAUAUUACGACAC | -0.962 ± 0.06 | -0.0161 ± 0.08
GCCAAGCAAUAUUACGACAG | -3.63 ± 0.2 | -3.8 ± 0.39
GCCAAGCAAUAUUACGAGGU | -3.83 ± 0.18 | -2.74 ± 0.26
GCCAAGCAAUAUUACGCAUG | -4.41 ± 0.46 | -2.22 ± 0.3
GCCAAGCAAUAUUACGCCUU | -2.83 ± 0.13 | -1.26 ± 0.12
GCCAAGCAAUAUUACGCGGA | -1.1 ± 0.099 | -0.277 ± 0.11
GCCAAGCAAUAUUACGCGGU | -3.73 ± 0.2 | -3.25 ± 0.27
GCCAAGCAAUAUUACGCUGU | -2.26 ± 0.12 | -1.36 ± 0.13
GCCAAGCAAUAUUACGGACC | -3.32 ± 0.15 | -0.612 ± 0.13
GCCAAGCAAUAUUACGGCAC | -2.04 ± 0.12 | -0.268 ± 0.12
GCCAAGCAAUAUUACGGCAU | -3.55 ± 0.21 | -2.55 ± 0.19
GCCAAGCAAUAUUACGGCUC | -1.99 ± 0.071 | -0.526 ± 0.091
GCCAAGCAAUAUUACGGGAG | -3.55 ± 0.19 | -1.46 ± 0.13
GCCAAGCAAUAUUACGGGCG | -1.36 ± 0.09 | -0.322 ± 0.11
GCCAAGCAAUAUUACGUACC | -1.28 ± 0.1 | -0.683 ± 0.15
GCCAAGCAAUAUUACGUAGU | -0.579 ± 0.051 | -0.395 ± 0.06
GCCAAGCAAUAUUACGUAUC | -1.66 ± 0.066 | -0.646 ± 0.082
GCCAAGCAAUAUUACGUCAU | -2.96 ± 0.22 | -2.59 ± 0.18
GCCAAGCAAUAUUACGUCGG | -2.95 ± 0.18 | -2.28 ± 0.24
GCCCAGCAAUAUUACGAAGG | -3.32 ± 0.14 | -2.42 ± 0.21
GCCCAGCAAUAUUACGAAGU | -0.333 ± 0.054 | 0.22 ± 0.069
GCCCAGCAAUAUUACGACGU | 0.175 ± 0.053 | 0.441 ± 0.067
GCCCAGCAAUAUUACGACUC | -0.305 ± 0.059 | 0.916 ± 0.087

Sequence | self-splicing fitness (ln) (30 °C) | self-splicing fitness (ln) (37 °C)
GCCCAGCAAUAUUACGAGAC | -2.15 ± 0.093 | -0.787 ± 0.085
GCCCAGCAAUAUUACGAGAG | -2.63 ± 0.096 | -1.42 ± 0.1
GCCCAGCAAUAUUACGAGGA | -0.441 ± 0.075 | -0.147 ± 0.086
GCCCAGCAAUAUUACGAUAC | -2.24 ± 0.086 | -0.313 ± 0.094
GCCCAGCAAUAUUACGAUUU | -1.07 ± 0.076 | -0.735 ± 0.1
GCCCAGCAAUAUUACGCAAG | -2.79 ± 0.093 | -2.46 ± 0.14
GCCCAGCAAUAUUACGCAGU | -0.834 ± 0.049 | 0.141 ± 0.056
GCCCAGCAAUAUUACGCAUC | -0.67 ± 0.075 | -0.106 ± 0.092
GCCCAGCAAUAUUACGCCCC | -1.48 ± 0.15 | -0.245 ± 0.22
GCCCAGCAAUAUUACGCCUG | -3.5 ± 0.3 | -2.64 ± 0.26
GCCCAGCAAUAUUACGCGGA | -0.775 ± 0.098 | -0.201 ± 0.12
GCCCAGCAAUAUUACGCGUU | 0.0719 ± 0.046 | 0.222 ± 0.065
GCCCAGCAAUAUUACGGAUA | -0.88 ± 0.078 | 0.215 ± 0.089
GCCCAGCAAUAUUACGGCCG | -1.11 ± 0.28 | 
GCCCAGCAAUAUUACGGCCU | -2.68 ± 0.16 | -0.992 ± 0.13
GCCCAGCAAUAUUACGGGAC | -4.73 ± 0.31 | -2.48 ± 0.14
GCCCAGCAAUAUUACGUCAA | -2.62 ± 0.1 | -1.68 ± 0.097
GCCCAGCAAUAUUACGUGUC | -0.887 ± 0.053 | -0.349 ± 0.066
GCCCAGCAAUAUUACGUGUG | -2.21 ± 0.08 | -1.69 ± 0.081
GCCGAGCAAUAUUACGAACU | -2.13 ± 0.3 | -0.52 ± 0.42
GCCGAGCAAUAUUACGAAGU | -2.51 ± 0.35 | -1.14 ± 0.24
GCCGAGCAAUAUUACGAGAC | -2.93 ± 0.11 | -1.54 ± 0.1
GCCGAGCAAUAUUACGAGGC | -3.23 ± 0.35 | -2.3 ± 0.37
